This note sets out measurements from patent US5840673, “Insulin-like growth factor binding protein 3 (IGF-BP3) in treatment of p53-related tumors” (Bristol-Myers Squibb Company).

This series concerns the target p53 (His-tagged, wild type) (Homo sapiens, UniProt P04637 P04637:1-393). In words: EMSA; binding potentiated and supershifted by PAb421. The conditions noted are these: tags: His fusion, baculovirus-produced; chain copies: 4.

p53 (His-tagged, wild type), sequence (P04637 whole entry, the tested form may be a part, one chain of several): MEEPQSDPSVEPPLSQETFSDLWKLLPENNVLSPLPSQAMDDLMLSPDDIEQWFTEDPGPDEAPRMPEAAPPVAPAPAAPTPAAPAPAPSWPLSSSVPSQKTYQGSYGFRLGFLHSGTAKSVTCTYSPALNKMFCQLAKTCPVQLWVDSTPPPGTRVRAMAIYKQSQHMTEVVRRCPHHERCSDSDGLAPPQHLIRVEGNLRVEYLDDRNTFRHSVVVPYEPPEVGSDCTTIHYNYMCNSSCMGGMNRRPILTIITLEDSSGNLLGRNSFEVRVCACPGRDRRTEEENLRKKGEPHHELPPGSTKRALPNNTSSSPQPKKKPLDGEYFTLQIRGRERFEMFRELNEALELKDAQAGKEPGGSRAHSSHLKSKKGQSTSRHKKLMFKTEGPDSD

B1: IGF-BP3 Box A (dsDNA)
DNA 1: TCGAGAAAACAAGCCACCAACATGCTTGC
DNA 2: GCAAGCATGTTGGTGGCTTGTTTTCTCGA
Consider B1, for which the binding result is “binds”.

B2: IGF-BP3 Box B (dsDNA)
DNA 1: TCGAGAGGAGGGCAAGACCTGCCAAGCCTGGGTA
DNA 2: TACCCAGGCTTGGCAGGTCTTGCCCTCCTCTCGA
With B2, the binding result is listed as “binds”.
